The values below come from paper PMC7196805.

For this assay, the target named is T1, JUNO (mouse (endogenous in mouse oocytes)) (UniProt Q9EQF4).
T1 sequence: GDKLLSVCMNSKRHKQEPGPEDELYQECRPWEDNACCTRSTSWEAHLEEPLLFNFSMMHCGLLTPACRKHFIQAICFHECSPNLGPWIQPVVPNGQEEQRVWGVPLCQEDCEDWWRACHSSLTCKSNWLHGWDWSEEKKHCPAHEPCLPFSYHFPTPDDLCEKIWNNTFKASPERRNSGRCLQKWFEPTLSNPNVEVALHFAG

B1: IZUMO1 (natural protein)
chain: CIKCDQFVTDALKTFENTYLNDHLPHDIHKNVMRMVNHEVSSFGVVTSAEDSYLGAVDENTLEQATWSFLKDLKRITDSDLKGELFIKELLWMLRHQKDIFNNLARQFQKEVLCPNKCGVMSQTLIWCLKCEKQLHICRKSLDCGERHIEVHRSEDLVLDCLLSWHRASKGLTDYSFYRVWENSSETLIAKGKEPYLTKSMVGPEDAGNYRCVLDTINQGHATVIRYDVTVLPPKHSEENQPPNIITQEEHETPVHVTPQTPPGQEPESELYPELHPELYPELIPTVAQNPEKKMKTRLLILLTLGFVVLVASIIISVLHFRKVSAKLKNASDEVKPTASGSKSDQSLSQQMGLKKASQADFNSDYSGDKSEATEN
Consider B1, for which the cell-oocyte binding assay: IZUMO1-expressing cultured cells bound per ZP-free oocyte (FIMP-expressing cells could not bind) (cells per oocyte) stood at 4; the cell-oocyte binding assay: transfected HEK293T cells coexpressing IZUMO1 and FIMP, bound per oocyte (coexpression of FIMP did not enhance the binding) (cells per oocyte) stood at 4.1; the cell-oocyte binding assay: transfected HEK293T cells expressing IZUMO1 alone, bound per oocyte (cells per oocyte) was determined as 4.5.
